Experimental data from US12570957B2, “Isolated naive pluripotent stem cells and methods of generating same” (Yeda Research and Development Co. Ltd., priority 2013, dated 2026).

Key:
Format in all cases: cell-based
[1] = test system: WIS1 naive human ESCs; assay: PGCLC induction from naive ESCs, NANOS3-mCherry FACS; details: 2 days N2-KSR medium then 4 days PGC medium
Source text: FIGS. 96A-96I depict the process of differentiating human ESCs into primordial germ cell like cells. FIG. 96A—schematic illustration of the differentiation process. FIGS. 96B-96I—FACS analyses for detecting PGCLC marker expression NANOS3-Cherry. […] Shown are FACS results after 2 (FIGS. 96D and 96G), 4 (FIGS. 96E and 96H), and 6 (FIGS. 96F and 961) days in the PGC medium. The Figures show specific induction of mCherry reporter at Day 2+4 and only when BMP4 is included in the differentiation medium (FIG. 96E). […] One representative experiment is shown out of five performed. +/− indicates s.d. (n=5).
N2-KSR medium—250 ml Neurobasal medium (Invitrogen—#21103-049), 250 ml DMEM-F12, N2 supplement (Invitrogen, #17502-048), 1% KSR (knockout serum replacement, Invitrogen, #10828028) medium] with 8 ng/ml bFGF (Peprotech), 1 ng/ml TGF-β1 (Peprotech) and ROCKi (10 μM).
PGC medium is comprised of GMEM (Invitrogen, #21710082), 15% KSR, 1% NNEA (Biological industries, 01-340-1B), Penicillin-Streptomycin, 1 mM L-Glutamine, […] (Y-27632, Axon Medchem) and the following cytokines: 500 ng/ml BMP4 (bone morphogenetic protein 4; R&D Systems Inc.), 20 ng/ml LIF (leukemia inhibitory factor; PeproTech), 100 ng/ml SCF (Stem Cell Factor; PeproTech), 50 ng/ml EGF (Epidermal Growth Factor; Peprotech). […]

[2] = test system: naive hESCs/hiPSCs; assay: Pluripotency maintenance after supplementation of inhibitors or growth factors; details: naive human cells in WIS-NHSM
Experimental: (§1) Shown are histograms depicting colony formation of pluripotent cell lines in various media. Cell populations were equally divided and plated on gelatin/vitronectin coated plates in the indicated growth medium in which these cell lines are normally maintained (mouse naive cells in a medium containing 2i/LIF, naive hESCs/iPSCs in a WIS-NHSM medium, mouse EpiSCs and human primed ESCS/iPSCs in a KSR/bFGF/TGFβmedium). 36 hours later the wells were supplemented with the indicated inhibitors or growth factors. After 14 days (2 passages), wells were analyzed for Oct4-GFP pluripotency marker expression by FACS, to determine the relative percentage of pluripotent colonies. Pluripotent cell frequency was normalized to an internal control, as indicated by “Growth medium” only on the far left column (For naive cells growth medium was WIS-NHSM, and for primed cells was conventional KSR/bFGF/TGFβcontaining medium as specified in methods). […]
(§2) FIGS. 108A-108C—Signaling and functional characteristics of human naive pluripotency. […] After 14 days (2 passages), wells were analyzed by OCT4 immunostaining of direct detection of OCT4-GFP pluripotency reporter expression, to determine the relative percentage of undifferentiated pluripotent cells. […] After 20 days, colonies positive for OCT4 pluripotency markers were counted and normalized to colonies from cells electroporated with empty vector. […]

[3] = test system: primed hESCs/hiPSCs; assay: as above; details: primed human cells
Experimental: as §1, §2

B1: BMP4: bone morphogenetic protein 4, recombinant human (protein, UniProt P12644 293-408, looked up)
Bone morphogenetic protein 4: SPKHHSQRARKKNKNCRRHSLYVDFSDVGWNDWIVAPPGYQAFYCHGDCPFPLADHLNSTNHAIVQTLVNSVNSSIPKACCVPTELSAISMLYLDEYDKVVLKNYQEMVVEGCGCR
- cells expressing NANOS3-mCherry reporter [1]: 17.7%
- response of pluripotent state [2]: do not differentiate
- response of pluripotent state [3]: differentiated
